Reference: PMC12677907

Biological target: BoABA2, purified protein (GST pull-down and enzyme assay) (cabbage (Brassica oleracea var. capitata))

BoABA2 catalytic activity in converting xanthoxin to abscisic aldehyde in vitro, co-incubated with BoCML37 in the presence of Ca2+, relative to BoABA2 alone: 3.88 fold
Substance: BoCML37, purified protein (GST pull-down and enzyme assay) (natural protein)
